SARS-CoV-2 full-length spike, WT D614G, expressed on the cell surface (from UniProt P0DTC2) Alpha (B.1.1.7)
ratio to parent (BD368-2 (class II)): 1.3 fold
ratio to parent (CB6 (class I)): 2.7 fold

SARS-CoV-2 full-length spike, WT D614G, expressed on the cell surface (from UniProt P0DTC2) Beta (B.1.351)
ratio to parent (BD368-2 (class II)): -569 fold
ratio to parent (CB6 (class I)): -76.3 fold
ratio to parent (REGN10933 (class I)): -3.2 fold

SARS-CoV-2 full-length spike, WT D614G, expressed on the cell surface (from UniProt P0DTC2) Gamma (P.1)
ratio to parent (CB6 (class I)): -266 fold

From article PMC8710476
